# Measured values: patent US20260176621A1, “Metabolically Stabilized Carbohydrate Targeting Ligands For Oligonucleotide Conjugates” (Arrowhead Pharmaceuticals, Inc., priority 2023, published 2026)
# Values joined by “and” are separate entries in the source; they are usually repeats but may differ in a detail not shown here. Equal entries are not always repeated.
# B1: AD14216: multimeric (dimer) FXII-ANGPTL3 RNAi agent conjugate with NAG37s ligand, not metabolically stabilized, SEQ ID NO 5-7 (nucleic acid)
# chain 1: UUCAAAGCACUUUAUUGAG
# chain 2: UUGAGUUGAGUUCAAGUGA
# chain 3: UCACUUGAACUCAACUCAACUCAAUAAAGUGCUUUGAA
# modifications: NAG37s ligand conjugate; modified_base 1 OTHER; 5'-cyclopropyl phosphonate-2'-O-methyluridine; modified_base 1^2 OTHER; phosphorothioate linkage; modified_base 2 OTHER; 2'-fluorouridine; modified_base 2^3 OTHER; modified_base 3 cm; modified_base 3^4 OTHER; modified_base 4 OTHER; 2'-fluoroadenosine; modified_base 5 OTHER; 2'-O-methyladenosine; modified_base 6 OTHER; 2'-fl; phosphoro
# B2: AD14217: multimeric (dimer) FXII-ANGPTL3 RNAi agent conjugate with metabolically stabilized NAG42s ligand, SEQ ID NO 8-10 (nucleic acid)
# chain 1: UUCAAAGCACUUUAUUGAG
# chain 2: UUGAGUUGAGUUCAAGUGA
# chain 3: B1 chain 3
# modifications: NAG42s ligand conjugate; modified_base 1 OTHER; 5'-cyclopropyl phosphonate-2'-O-methyluridine; modified_base 1^2 OTHER; phosphorothioate linkage; modified_base 2 OTHER; 2'-fluorouridine; modified_base 2^3 OTHER; modified_base 3 cm; modified_base 3^4 OTHER; modified_base 4 OTHER; 2'-fluoroadenosine; modified_base 5 OTHER; 2'-O-methyladenosine; modified_base 6 OTHER; 2'-fl; phosphoro
# B3: AD14218: multimeric (dimer) FXII-ANGPTL3 RNAi agent conjugate with metabolically stabilized NAG52s ligand, SEQ ID NO 11-13 (nucleic acid)
# chain 1: UUCAAAGCACUUUAUUGAG
# chain 2: UUGAGUUGAGUUCAAGUGA
# chain 3: B1 chain 3
# modifications: NAG52s ligand conjugate; modified_base 1 OTHER; 5'-cyclopropyl phosphonate-2'-O-methyluridine; modified_base 1^2 OTHER; phosphorothioate linkage; modified_base 2 OTHER; 2'-fluorouridine; modified_base 2^3 OTHER; modified_base 3 cm; modified_base 3^4 OTHER; modified_base 4 OTHER; 2'-fluoroadenosine; modified_base 5 OTHER; 2'-O-methyladenosine; modified_base 6 OTHER; 2'-fl; phosphoro
# How the values were obtained:
# ANGPTL3 = assay: Serum ANGPTL3 protein by ELISA after single SC dose in cynomolgus monkeys (Example 4); assay type: in vivo, cynomolgus macaque (Macaca fascicularis); parameters: key to Avg cANGPTL3 normalized to pre-treatment and control: ratio to animal's pre-dose geometric mean, then to saline group mean
# Description: (§1) Multimeric (dimer) RNAi agent conjugates that included metabolically stabilized NAG targeting ligands were evaluated for gene silencing activity in cynomolgus macaque (Macaca fascicularis) primates (referred to herein as “cynos”). Each of the multimeric RNAi agent conjugates evaluated included one RNAi agent of the conjugate having sufficient complementarity with the mouse Angiopoietin-like 3 (ANGPTL3) gene transcript, and a second RNAi agent having sufficient complementarity with the mouse Factor 12 (FXII) gene transcript. As discussed in more detail below, both FXII and ANGPTL3 gene expression levels were assessed.
# (§2) At day 1, male cynos were given a single subcutaneous administration of 0.3 mL/kg animal weight (20 mg/mL concentration) containing 6.0 mg/kg (mpk) of a multimeric RNAi agent conjugate formulated in isotonic saline, or 3.0 mg/kg of two separate RNAi conjugates, according to the following Table 3.
# (§3) Three (3) cynos were dosed in each Group (n=3). Serum samples were taken on days −14, −7, and day 1 (pre-dose). Serum was then collected on days 8, 15, 22, 29, 36 43, 50, 57, 64, 71, 78, 98, 106, 120, 133, 148, and 162.
# (§4) ANGPTL3 protein levels in serum were measured by ELISA assay (R&D Systems), according to the manufacturer's recommendations. FXII protein levels in serum were measured by ELISA assay (R&D Systems), according to the manufacturer's recommendations. The ANGPTL3 protein levels and FXII protein levels for each animal were normalized. For normalization, the level of ANGPTL3 protein or FXII protein, respectively, for each animal at a time point, was divided by the geometric mean of pre-treatment level of expression in that animal (in this case at days −14, −7 and 1 (pre-dose)) to determine the ratio of expression “normalized to pre-treatment.” Expression at a specific time point was then normalized to the saline control group by dividing the “normalized to pre-treatment” ratio for an individual animal by the mean “normalized to pretreatment” ratio of all […] in the saline control group.
# FXII = assay: Serum FXII protein by ELISA after single SC dose in cynomolgus monkeys (Example 4); assay type: in vivo, cynomolgus macaque (Macaca fascicularis); parameters: key to Avg cFXII normalized to pre-treatment and control: ratio to animal's pre-dose geometric mean, then to saline group mean
# Description: as §1, §2, §3, §4
# [1] = Day 8, single SC dose day 1, 6.0 mg/kg (Group 1: 3.0+3.0 mg/kg)
# [2] = Day 15, single SC dose day 1, 6.0 mg/kg (Group 1: 3.0+3.0 mg/kg)
# [3] = Day 22, single SC dose day 1, 6.0 mg/kg (Group 1: 3.0+3.0 mg/kg)
# [4] = Day 29, single SC dose day 1, 6.0 mg/kg (Group 1: 3.0+3.0 mg/kg)
# [5] = Day 36, single SC dose day 1, 6.0 mg/kg (Group 1: 3.0+3.0 mg/kg)
# [6] = Day 43, single SC dose day 1, 6.0 mg/kg (Group 1: 3.0+3.0 mg/kg)
# [7] = Day 50, single SC dose day 1, 6.0 mg/kg (Group 1: 3.0+3.0 mg/kg)
# [8] = Day 57, single SC dose day 1, 6.0 mg/kg (Group 1: 3.0+3.0 mg/kg)
# [9] = Day 64, single SC dose day 1, 6.0 mg/kg (Group 1: 3.0+3.0 mg/kg)
# [10] = Day 71, single SC dose day 1, 6.0 mg/kg (Group 1: 3.0+3.0 mg/kg)
# [11] = Day 78, single SC dose day 1, 6.0 mg/kg (Group 1: 3.0+3.0 mg/kg)
# [12] = Day 98, single SC dose day 1, 6.0 mg/kg (Group 1: 3.0+3.0 mg/kg)
# [13] = Day 106, single SC dose day 1, 6.0 mg/kg (Group 1: 3.0+3.0 mg/kg)
# [14] = Day 120, single SC dose day 1, 6.0 mg/kg (Group 1: 3.0+3.0 mg/kg)
# [15] = Day 133, single SC dose day 1, 6.0 mg/kg (Group 1: 3.0+3.0 mg/kg)
# [16] = Day 148, single SC dose day 1, 6.0 mg/kg (Group 1: 3.0+3.0 mg/kg)
# [17] = Day 162, single SC dose day 1, 6.0 mg/kg (Group 1: 3.0+3.0 mg/kg)
Molecule,Avg cANGPTL3 normalized to pre-treatment and control (ANGPTL3; [1]),Avg cANGPTL3 normalized to pre-treatment and control (ANGPTL3; [2]),Avg cANGPTL3 normalized to pre-treatment and control (ANGPTL3; [3]),cANGPTL3 knockdown (ANGPTL3; [3]),Avg cANGPTL3 normalized to pre-treatment and control (ANGPTL3; [4]),Avg cANGPTL3 normalized to pre-treatment and control (ANGPTL3; [5]),Avg cANGPTL3 normalized to pre-treatment and control (ANGPTL3; [6]),Avg cANGPTL3 normalized to pre-treatment and control (ANGPTL3; [7]),Avg cANGPTL3 normalized to pre-treatment and control (ANGPTL3; [8]),Avg cANGPTL3 normalized to pre-treatment and control (ANGPTL3; [9]),Avg cANGPTL3 normalized to pre-treatment and control (ANGPTL3; [10]),Avg cANGPTL3 normalized to pre-treatment and control (ANGPTL3; [11]),Avg cANGPTL3 normalized to pre-treatment and control (ANGPTL3; [12]),Avg cANGPTL3 normalized to pre-treatment and control (ANGPTL3; [13]),cANGPTL3 knockdown (ANGPTL3; [13]),Avg cANGPTL3 normalized to pre-treatment and control (ANGPTL3; [14]),Avg cANGPTL3 normalized to pre-treatment and control (ANGPTL3; [15]),Avg cFXII normalized to pre-treatment and control (FXII; [1]),Avg cFXII normalized to pre-treatment and control (FXII; [2]),Avg cFXII normalized to pre-treatment and control (FXII; [3]),other results
B1,0.442,0.362,0.339,approximately 66%,0.403,0.369,0.394,0.560,0.622,0.590,0.641,0.603,0.666,0.944,no meaningful knockdown,1.128,1.129,0.481,0.320,0.222,cFXII knockdown (FXII; [3]): approximately 78%; Avg cFXII normalized to pre-treatment and control (FXII; [4]): 0.179; Avg cFXII normalized to pre-treatment and control (FXII; [5]): 0.224; Avg cFXII normalized to pre-treatment and control (FXII; [6]): 0.237; Avg cFXII normalized to pre-treatment and control (FXII; [7]): 0.130; Avg cFXII normalized to pre-treatment and control (FXII; [8]): 0.194; Avg cFXII normalized to pre-treatment and control (FXII; [9]): 0.184; Avg cFXII normalized to pre-treatment and control (FXII; [10]): 0.429; Avg cFXII normalized to pre-treatment and control (FXII; [11]): 0.491; Avg cFXII normalized to pre-treatment and control (FXII; [12]): 0.592; cFXII knockdown (FXII; [12]): approximately 41%; Avg cFXII normalized to pre-treatment and control (FXII; [13]): 0.520; Avg cFXII normalized to pre-treatment and control (FXII; [14]): 0.567; Avg cFXII normalized to pre-treatment and control (FXII; [15]): 0.784; Avg cFXII normalized to pre-treatment and control (FXII; [16]): 0.589; Avg cFXII normalized to pre-treatment and control (FXII; [17]): 0.728
B2,0.361,0.288,0.194,approximately 81%,0.261,0.246,0.272,0.327,0.456,0.548,0.521,0.505,0.490,0.777 and 0.770,approximately 33%,0.943,0.892,0.430,0.230,0.219,cFXII knockdown (FXII; [3]): approximately 78%; Avg cFXII normalized to pre-treatment and control (FXII; [4]): 0.095; Avg cFXII normalized to pre-treatment and control (FXII; [5]): 0.126; Avg cFXII normalized to pre-treatment and control (FXII; [6]): 0.103; Avg cFXII normalized to pre-treatment and control (FXII; [7]): 0.104; Avg cFXII normalized to pre-treatment and control (FXII; [8]): 0.065; Avg cFXII normalized to pre-treatment and control (FXII; [9]): 0.093; Avg cFXII normalized to pre-treatment and control (FXII; [10]): 0.211; Avg cFXII normalized to pre-treatment and control (FXII; [11]): 0.230; Avg cFXII normalized to pre-treatment and control (FXII; [12]): 0.316; cFXII knockdown (FXII; [12]): approximately 69%; Avg cFXII normalized to pre-treatment and control (FXII; [13]): 0.316; Avg cFXII normalized to pre-treatment and control (FXII; [14]): 0.443; Avg cFXII normalized to pre-treatment and control (FXII; [15]): 0.536; Avg cFXII normalized to pre-treatment and control (FXII; [16]): 0.567; Avg cFXII normalized to pre-treatment and control (FXII; [17]): 0.468
B3,0.252,0.238,0.137,~86%,0.161,0.186,0.164,0.212,0.245,0.352,0.328,0.354,0.425,0.565,approximately 45%,0.637,0.672,0.299,0.201,0.156,"cFXII knockdown (FXII; [3]): approximately 85%; Avg cFXII normalized to pre-treatment and control (FXII; [4]): 0.077; Avg cFXII normalized to pre-treatment and control (FXII; [5]): 0.058; Avg cFXII normalized to pre-treatment and control (FXII; [6]): 0.058; Avg cFXII normalized to pre-treatment and control (FXII; [7]): 0.032; Avg cFXII normalized to pre-treatment and control (FXII; [8]): 0.056; Avg cFXII normalized to pre-treatment and control (FXII; [9]): 0.038; Avg cFXII normalized to pre-treatment and control (FXII; [10]): 0.094; Avg cFXII normalized to pre-treatment and control (FXII; [11]): 0.109; Avg cFXII normalized to pre-treatment and control (FXII; [12]): 0.139; cFXII knockdown (FXII; [12]): approximately 86%; Avg cFXII normalized to pre-treatment and control (FXII; [13]): 0.158; Avg cFXII normalized to pre-treatment and control (FXII; [14]): 0.194; Avg cFXII normalized to pre-treatment and control (FXII; [15]): 0.213; Avg cFXII normalized to pre-treatment and control (FXII; [16]): 0.263; cFXII inhibition (FXII; Day 162, single SC dose day 1, 6.0 mg/kg): more than 70%; Avg cFXII normalized to pre-treatment and control (FXII; [17]): 0.285"
